# B1: Protein nutcracker (Drosophila melanogaster (Fruit fly)), Q8SX86 (parent)
# chain: MSDTKSEIEGFIAIPTTSGEQQQQQPQQQQNEQQVVGTKDIKAPDQVGKKQRPRLIQEKSTQETNPLILEHATLEWVPQHMDKLLNQYQECRKMPAAEWLHLLTYLVALECGFVEEETFAQKRHLIQPVPSFSSFHAQNVRILSEQPARYEVCFNDTVYIMRLRTLLDKHAPEETSLVAALQCRLMAVSLGDQLMITLSPAPPSKEPGYSVSLSIGRYVLNIQAKNKPIYHRFRKLDELSYQLKQHLFQPMRSQQLMQMEMKLQPSLLGLPDELYFEIFRYLDKSQLNVVARVNRHLHFYSKEVERKRLKGGRS
# partner: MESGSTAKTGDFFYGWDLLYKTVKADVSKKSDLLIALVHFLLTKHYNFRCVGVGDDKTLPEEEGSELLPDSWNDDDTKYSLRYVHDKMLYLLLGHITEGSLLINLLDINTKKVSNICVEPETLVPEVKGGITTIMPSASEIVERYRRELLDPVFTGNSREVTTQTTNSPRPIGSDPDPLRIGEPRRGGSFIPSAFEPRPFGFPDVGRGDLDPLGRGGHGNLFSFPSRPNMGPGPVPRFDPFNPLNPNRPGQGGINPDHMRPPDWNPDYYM
# Variants of: B1
# Conditions: with psmf1_drome PI31, Q9V637
row,Variant,effect of a mutation on the interaction
1,MSDTKSEIEGFIAIPTTSGEQQQQQPQQQQNEQQVVGTKDIKAPDQVGKKQRPRLIQEKSTQETNPLILEHATLEWVPQHMDKLLNQYQECRKMPAAEWLHLLTYLVALECGFVEEETFAQKRHLIQPVPSFSSFHAQNVRILSEQPARYEVCFNDTVYIMRLRTLLDKHAPEETSLVAALQCRLMAESLGDQLMITLSPAPPSKEPGYSVSLSIGRYVLNIQAKNKPIYHRFRKLDELSYQLKQHLFQPMRSQQLMQMEMKLQPSLLGLPDELYFEIFRYLDKSQLNVVARVNRHLHFYSKEVERKRLKGGRS [V188E],decreasing interaction

# Source: IntAct's records for PubMed 21529711
